Reference: paper PMC4655416, “The activity of protein phosphatase 5 towards native clients is modulated by the middle- and C-terminal domains of Hsp90” (Scientific Reports, 2015)
“And” between values parts separate entries of the source, which are not always exact repeats. Equal values may be shown once.

How the values were obtained:
[1] = target: T1, C. elegans Hsp90 (CeHsp90), full-length (C. elegans, UniProt Q18688 1-702); assay: cell-based or functional assay
[2] = target: T2, CeHsp90-derived MEEVD-containing peptide AEEDASRMEEVD (C. elegans); assay: cell-based or functional assay
T2 peptide: AEEDASRMEEVD

[3] = target: T1, C. elegans Hsp90 (CeHsp90), full-length; assay: AUC; sedimentation velocity with UV/VIS absorbance optics (OD280); PPH-5 titrated to a constant concentration of CeHsp90 (4 μM) or CeHsp90-MC (3.5 μM); global fit to sequential binding of a first and second PPH-5; settings: both partners purified

kcat of PPH-5 towards the model peptide KRpTIRR (50 μM) with 3 μM CeHsp90 [1]: 0.133 s⁻¹
pNPP turnover by PPH-5 in presence of 60 μM peptide … [2]: ~6 fold
Kd [3]: ~1000 nM and 1000 to 3000 nM
stoichiometry N [3]: 2 PPH-5 per CeHsp90 dimer
B1: protein phosphatase 5 from C. elegans (PPH-5) (enzyme, UniProt Q9NES8 1-496, looked up)
chain: MAATITDDIVATVLESIEEKSYEDEKEKAGMIKDEANQFFKDQVYDVAADLYSVAIEIHPTAVLYGNRAQAYLKKELYGSALEDADNAIAIDPSYVKGFYRRATANMALGRFKKALTDYQAVVKVCPNDKDARAKFDECSKIVRRQKFEAAISTDHDKKTVAETLDINAMAIEDSYDGPRLEDKITKEFVLQLIKTFKNQQKLHKKYAFKMLLEFYNYVKSLPTMVEITVPTGKKFTICGDVHGQFYDLCNIFEINGYPSETNPYLFNGDFVDRGSFSVETIFTMIGFKLLYPNHFFMSRGNHESDVMNKMYGFEGEVKAKYTQQMCDMFTETFCWLPLCHLINEKIFVCHGGLFKEDGVTLEDIRKTDRNRQPPDEGIMCDLLWSDPQPINGRSPSKRGVGCQFGPDVTSKWCETNGIEYVVRSHEVKPEGYEMHHNGQCFTVFSAPNYCDQMNNKGAFITITGDNLTPRFTPFDAVPHPKLPPMAYANSLFGFN
notes: protein phosphatase 5 (PPH-5) of C. elegans; also called the phosphatase; source: E. coli BL21-CodonPlus(DE3)-RIL, purified (Ni-NTA, Resource Q, gel filtration); not shown: His6, N-terminal, kept
